Data from ChEMBL document CHEMBL2074257, “Expression cloning of a Na+-independent aromatic amino acid transporter with structural similarity to H+/monocarboxylate transporters” (J Biol Chem, 2001).

B1: Monocarboxylate transporter 10 (Rattus norvegicus), Q91Y77 (protein)
chain: MVPSQEEPAAAERETNEAQPPGPAPSDDAPLPVPGPSDVSDGSVEKVEVELTRSTGNQEPPEPPEGGWGWLVMLAAMWCNGSVFGIQNAYGVLFVSMLETFGAKDDDNMAFKAAWVGSLSMGMIFFCCPIVSVFTDMFGCRRTAVLGAAVGFVGLMSSSFVSSIEPLYFTYGVVFACGCSFAYQPSLVILGHYFKKRLGLVNGIVTAGSSVFTILLPLLLGNLTSTVGLCYTLRILCIFMFVLFLAGFTYRPLVPSSKEKESEDSRSSFFSRRKLSPPKKIFNFALFKETAYAVWAAGIPLALFGYFVPYVHLMNHVKERFKDVNNKEVLFMCIGVTSGVGRLLFGRIADYLPGVKKVYLQVLSFFFIGLTSMMIPLCSVFGALIALCLIMGLFDGCFISIMAPIAFELVGPQDASQAIGFLLGFMSIPMTVGPPVAGLLHDKLGSYDLAFYLAGIPPFIGGAVLCLIPWIHSKKQREISKNTGGEKMEKMLANQSSLLSSSSGIFKKESDSII

How the values were obtained:
[1] = target: T1, Monocarboxylate transporter 10 (Rattus norvegicus, UniProt Q91Y77); test: TP_TRANSPORTER: inhibition of L-tryptophan uptake in Xenopus laevis oocytes; assay type: functional, cell-based, Oocyte
T1 sequence (Q91Y77 whole entry): B1 chain

[2] = substrate: N[C@@H](Cc1c[nH]c2ccccc12)C(=O)O; settings: Xenopus laevis; Oocyte
[3] = substrate: N[C@@H](Cc1ccc(O)cc1)C(=O)O; settings: Xenopus laevis; Oocyte
[4] = substrate: N[C@@H](Cc1ccc(O)c(O)c1)C(=O)O; settings: Xenopus laevis; Oocyte
[5] = substrate: N[C@@H](Cc1ccccc1)C(=O)O; settings: Xenopus laevis; Oocyte

| Molecule | Ki [1] | Km [2] | Km [3] | Km [4] | Km [5] |
| --- | --- | --- | --- | --- | --- |
| CC(=O)N[C@@H](Cc1c[nH]c2ccccc12)C(=O)O [ACETYLTRYPTOPHAN] | 1.5 mM |  |  |  |  |
| CN[C@@H](Cc1c[nH]c2ccccc12)C(=O)O [ABRINE] | 3.1 mM |  |  |  |  |
| B1 |  | 3.72 mM | 2590 µM | 6.43 mM | 7.02 mM |
